US20250049896A1 (Regeneron, published 2025)
Substitutions are numbered along the chain they refer to.

Columns and labels:
[1] = biological target: T1, Hmm-hTFRC (REGN2431), monomeric human transferrin receptor ectodomain with N-terminal hexahistidine-myc-myc … (human, UniProt P02786 89-760); assay: blocking ELISA, supernatant; Hmm-hTFRC binding to immobilized human holo-Tf
T1 construct: also called hmm.hTfR(C89-F763); His-myc-myc-hTFRC ecto
In short: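 Plates were coated with anti-hTf goat pAb at 2 µg/mL overnight at 4 °C, then loaded with human holo-Tf at 1 µg/mL for 2 h at room temperature. Bound receptor was detected with TMB and absorbance read at 450 nm.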

[2] = biological target: T2, mf TFRC ecto-mmh (REGN2054), monomeric monkey (cyno) Tfrc ectodomain with C-terminal myc-myc-hexahistidine tag (monkey (cyno), Macaca fascicularis, UniProt H9EXL1 89-760); assay: SPR (Biacore), mAb captured on anti-human Fc, 100 nM mfTfR-mmh, 25 C
T2 construct: range 89-760; also called mfTfR-mmh; mfTFR-mmh
T2 sequence (chain, as listed by the source): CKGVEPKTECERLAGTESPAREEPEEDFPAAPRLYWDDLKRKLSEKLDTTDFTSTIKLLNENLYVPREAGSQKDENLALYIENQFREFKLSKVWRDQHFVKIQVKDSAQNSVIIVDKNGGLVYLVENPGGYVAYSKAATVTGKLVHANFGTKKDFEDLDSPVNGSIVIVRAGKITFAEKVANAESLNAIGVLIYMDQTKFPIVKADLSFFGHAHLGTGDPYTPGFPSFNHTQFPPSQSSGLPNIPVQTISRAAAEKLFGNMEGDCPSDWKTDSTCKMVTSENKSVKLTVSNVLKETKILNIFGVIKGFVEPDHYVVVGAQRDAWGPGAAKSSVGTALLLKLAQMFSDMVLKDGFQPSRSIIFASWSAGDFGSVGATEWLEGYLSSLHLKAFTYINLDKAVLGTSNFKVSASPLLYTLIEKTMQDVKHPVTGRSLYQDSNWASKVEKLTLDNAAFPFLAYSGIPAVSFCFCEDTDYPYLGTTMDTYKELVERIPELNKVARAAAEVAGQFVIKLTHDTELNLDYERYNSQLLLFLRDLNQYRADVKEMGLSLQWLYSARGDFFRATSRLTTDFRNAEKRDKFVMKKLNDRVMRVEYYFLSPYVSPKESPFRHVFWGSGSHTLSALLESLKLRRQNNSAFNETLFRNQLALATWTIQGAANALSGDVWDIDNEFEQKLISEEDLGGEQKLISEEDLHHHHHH
Experimental: (§1) Biacore binding kinetics assays were conducted for the interaction of 32 anti-human TfR IgG1 monoclonal antibodies from CHO supernatants with TfR reagents at 25° C.
(§2) Equilibrium dissociation constants (KD) for the interaction of anti-TfR monoclonal antibodies with human and fascicularis monkey TfR ecto domain recombinant proteins were determined using a real-time surface plasmon resonance (SPR) based Biacore S200 biosensor. All binding studies were performed in 10 mM HEPES, 150 mM NaCl, 3 mM EDTA, and 0.05% v/v surfactant Tween-20, pH 7.4 (HBS-EP) running buffer at […]. The Biacore CM5 sensor surface was first derivatized by amine coupling with a monoclonal mouse anti-human Fc antibody (REGN2567) followed by a step to capture anti-TfR monoclonal antibodies in CHO conditioned media. […] The dissociation of TfR bound to anti-TfR monoclonal antibodies was monitored for 3 minutes in HBS-EP running buffer. At the end of each cycle, the anti-TfR monoclonal antibodies capture surface was regenerated using a 12-sec injection of 20 mM H₃PO₄. The association rate (ka) and dissociation rate (kd) were determined by fitting the real-time binding sensorgrams to a 1:1 binding model with mass transport limitation using Scrubber 2.0 c software. The dissociation equilibrium constant (KD) and dissociative half-life (t½) were calculated from the kinetic rate constants as: […]

[3] = biological target: T2, mf TFRC ecto-mmh (REGN2054), monomeric …; assay: SPR (Biacore), mAb from CHO supernatant captured on anti-human Fc, 100 nM mfTfR-mmh injected, 25 C
Experimental: as §1, §2

[4] = biological target: T3, hmm.hTfRC (REGN2431), human transferrin receptor extracellular domain with hexahistidine-myc-myc tag (human, UniProt P02786 89-760); assay: SPR (Biacore), mAb captured on anti-human Fc, 100 nM hTFR-mmh, 25 C
T3 construct: Monomeric recombinant protein, 79210 g/mol; also called hTFR-mmh; His-myc-myc-hTFRC ecto
T3 sequence (P02786 other isoform, or with tags, fused parts or gaps): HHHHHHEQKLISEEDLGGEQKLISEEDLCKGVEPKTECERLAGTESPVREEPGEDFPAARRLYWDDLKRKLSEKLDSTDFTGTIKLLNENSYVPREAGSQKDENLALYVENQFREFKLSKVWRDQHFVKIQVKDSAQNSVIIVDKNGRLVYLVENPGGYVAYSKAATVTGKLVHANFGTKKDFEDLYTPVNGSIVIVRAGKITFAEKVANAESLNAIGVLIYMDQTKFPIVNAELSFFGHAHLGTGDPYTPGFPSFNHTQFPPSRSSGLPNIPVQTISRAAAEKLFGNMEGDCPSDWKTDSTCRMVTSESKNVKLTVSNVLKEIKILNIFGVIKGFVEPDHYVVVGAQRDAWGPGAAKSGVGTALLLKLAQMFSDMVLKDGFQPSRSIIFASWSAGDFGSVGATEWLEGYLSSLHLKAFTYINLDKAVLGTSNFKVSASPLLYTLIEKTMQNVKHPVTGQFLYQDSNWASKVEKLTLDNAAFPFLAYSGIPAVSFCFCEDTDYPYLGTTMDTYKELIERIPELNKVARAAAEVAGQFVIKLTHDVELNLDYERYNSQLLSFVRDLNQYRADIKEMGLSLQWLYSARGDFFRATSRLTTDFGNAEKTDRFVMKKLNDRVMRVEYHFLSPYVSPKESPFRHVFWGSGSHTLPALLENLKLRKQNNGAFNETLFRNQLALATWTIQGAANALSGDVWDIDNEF
Experimental: as §1, §2

T1 sequence (P02786 other isoform, or with tags, fused parts or gaps): as above

B1: 69340 Fab (Fab, V domains shown)
VH: EVQLVESGGGLVQPGRSLRLSCAASGFTFDDKAMHWVRQVPGKGLEWISGISWNSGTIGYADSVKGRFIISRDNAKNSLYLQMNSLRAEDTALYYCAKDGDTSGWYWYGLDVWGQGTTVTVSS
VL: EIVLTQSPATLSLSPGERATLSCRASQSVSSYLAWYQQKPGQAPRLLIHDVSNRATGIPARFSGSGSGTDFTLTISSLEPEDFVVYYCQQRSDWPITFGQGTRLEIKR
notes: CHO supernatant
B1 was tested, and the “% Blocking” value [1] was 3%.

B2: 69348 Fab (Fab, V domains shown)
VH: QVQLVESGGGVVQPGRSLRLSCAASGFTFTTYGMHWVRQAPGKGLEWVAVIWYDGSNKYYGDSVKGRFTISRDNSKNTLYLQMNSLRVDDTAVYYCTRTHGYTRSSDGFDYWGQGTLVTVSS
VL: DIQMTQSPSSLSASVGDRVTITCRASQSIRNVLGWFQQKPGKAPQRLIYAASSLQSGVPSRFSGSGSGTEFTLTISSLQPEDFATYYCLQHNFYPLTFGGGTKVEIKR
notes: CHO supernatant
For B2, the “% Blocking” value [1] was 40%.

B3: 69340 scFv (VH-VK) (scFv)
chain: EVQLVESGGGLVQPGRSLRLSCAASGFTFDDKAMHWVRQVPGKGLEWISGISWNSGTIGYADSVKGRFIISRDNAKNSLYLQMNSLRAEDTALYYCAKDGDTSGWYWYGLDVWGQGTTVTVSSEIVLTQSPATLSLSPGERATLSCRASQSVSSYLAWYQQKPGQAPRLLIHDVSNRATGIPARFSGSGSGTDFTLTISSLEPEDFVVYYCQQRSDWPITFGQGTRLEIK
For B3, the “% Blocking” value [1] was 6%.

B4: 69307 (antibody, human IgG1, kappa, V domains shown)
VH: EVQLVESGGGLVQPGGSLRLSCTASGFTFSNYWMTWVRQAPGKGLEWVANIKEDGSEKEYVDSVKGRFTISRDNAKNSLYLQMNSLRGEDTAVYYCARDGEQLVDYYYYYVMDVWGQGTTVTVSS
VL: DIQMTQSPSSVSASVGDRVTITCRASQGISSWLAWYQQKPGKAPKLLIYAASSLQSGVPSRFSGSGSGTDFTLTISSLQPEDFATYYCQKADSLPYAFGQGTKLEIKR
notes: Tested as bivalent human IgG1 from CHO primary supernatant
With B4 the “100 nM Ag Bound (RU)” value [2] was 3 RU, the binding result [3] was “no binding (tested: 100 nM)” and the “100 nM Ag Bound (RU)” value [4] was 1280 RU. It also gave a Kd [4] of 0.226 nM, a koff [4] of 4.26e-05 s⁻¹ and a kon [4] of 190000 M⁻¹ s⁻¹. For the same binder, the t½ [4] was 271 min.

B5: 12812B (antibody, human IgG1, kappa, V domains shown)
VH: QVQLVQSGAEVKKPGSSVRVSCKASRGTFSSYAISWVRQAPGQGLEWMGGIIPIFGTANYAQKFLARVTITADESTSTAYMELSSLRSEDTAVYYCAREKGWNYFDYWGQGTLVTVSS
VL: B4 VL with S9P, K90Q, D92N, L94F, Y96R, A97T, L104V
notes: as for B4
For B5, the “100 nM Ag Bound (RU)” value [2] was 1 RU, the binding result [3] was “no binding (tested: 100 nM)” and the “100 nM Ag Bound (RU)” value [4] was 11 RU. The Kd [4] was 3.02 nM, the koff [4] was 0.00131 s⁻¹ and the kon [4] was 433000 M⁻¹ s⁻¹. For the same binder, the t½ [4] was 8.8 min.

B6: 69329 (antibody, human IgG1, kappa, V domains shown)
VH: B4 VH with T23A, E59D
VL: B4 VL with D92N, L94F, A97T
notes: as for B4
With B6 the “100 nM Ag Bound (RU)” value [2] was 8 RU, the binding result [3] was “no binding (tested: 100 nM)” and the “100 nM Ag Bound (RU)” value [4] was 1100 RU. It also gave a Kd [4] of 0.97 nM, a koff [4] of 0.000186 s⁻¹ and a kon [4] of 192000 M⁻¹ s⁻¹. The t½ [4] was 62.2 min.

B7: 12839B (antibody, human IgG1, kappa, V domains shown)
VH: QVQLVESGGGVVQPGRSLRLSCAASGFPFSNYVMYWVRQAPGKGLEWVALIFFDGKKNYHADSVKGRFTITRDNSKNMLYLQMNSLRPEDAAVYYCAKIHCPNGVCYKGYYGMDVWGQGTTVTVSS
VL: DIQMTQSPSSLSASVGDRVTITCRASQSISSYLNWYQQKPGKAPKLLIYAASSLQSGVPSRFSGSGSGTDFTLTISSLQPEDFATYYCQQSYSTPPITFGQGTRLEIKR
notes: Tested as bivalent human IgG1 from CHO primary supernatant; also called H1H12839B; REGN17510
In the case of B7, the “100 nM Ag Bound (RU)” value [2] is reported as 11 RU, the binding result [3] is reported as “no binding (tested: 100 nM)” and the “100 nM Ag Bound (RU)” value [4] is reported as 660 RU. For the same binder, the Kd [4] was 0.448 nM, the koff [4] was 5.33e-05 s⁻¹ and the kon [4] was 118000 M⁻¹ s⁻¹. The t½ [4] was 217 min.

B8: 69348 scFv (VH-VK) (scFv)
chain: QVQLVESGGGVVQPGRSLRLSCAASGFTFTTYGMHWVRQAPGKGLEWVAVIWYDGSNKYYGDSVKGRFTISRDNSKNTLYLQMNSLRVDDTAVYYCTRTHGYTRSSDGFDYWGQGTLVTVSSDIQMTQSPSSLSASVGDRVTITCRASQSIRNVLGWFQQKPGKAPQRLIYAASSLQSGVPSRFSGSGSGTEFTLTISSLQPEDFATYYCLQHNFYPLTFGGGTKVEIK
B8 was tested, and the “% Blocking” value [1] was 0%.

B9: 12834B (antibody, human IgG1, kappa, V domains shown)
VH: QVQLVQSGAEVKKPGASVKVSCKASGYTFTSYGISWVRQAPGQGLEWMGWISVYHGNTNYAQKFQGRVTMTTDTSTSTAYMELRSLRSDDTAVYYCAREGYYDFWSGYYPFDYWGQGTLVTVSS
VL: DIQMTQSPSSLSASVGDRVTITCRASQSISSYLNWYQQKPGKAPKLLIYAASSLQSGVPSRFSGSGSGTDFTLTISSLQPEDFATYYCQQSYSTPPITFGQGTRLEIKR
notes: as for B4
In the case of B9, the “100 nM Ag Bound (RU)” value [2] is reported as 5 RU, the binding result [3] is reported as “no binding (tested: 100 nM)” and the “100 nM Ag Bound (RU)” value [4] is reported as 11 RU. It also gave a Kd [4] of 7 nM, a koff [4] of 0.00439 s⁻¹ and a kon [4] of 600000 M⁻¹ s⁻¹. It also gave a t½ [4] of 2.6 min.

B10: 69332 scFv (VH-VK) (scFv)
chain: QVTLRESGPALVKPSQTLTLTCTFSGFSLNTYGMFVSWIRQPPGKALEWLAHIHWDDDKYYSTSLKTRLTISKDTSKNQVVLTMTNMDPVDTATYYCARGHNNLNYIIHWGQGTLVTVSSAIQMTQSPSSLSASVGDRVTITCRASQGIRNDLGWYQQKPGKAPKLLIYAASTLQSGVPSRFSGSGSGTDFTLTISSLQPEDFATYYCLQDYNYPFTFGPGTKVDIK
With B10 the “% Blocking” value [1] was 6%.

B11: 69326 (antibody, human IgG1, kappa, V domains shown)
VH: EVQLVESGGGLVQPGGSLRLSCAVSGFIFSSYEMNWVRQAPGKGLEWVSYISSSGSTIFYADSVKGRFTISRDNAKNSLYLQMNSLRAEDTAVYYCVSGVVLFDVWGQGTMVTVSS
VL: EIVMTQSPATLSVSPGERATLSCRASQSVSSNFAWYQQKPGQAPRLLIYSASSRATGIPVRFSGSGSGTEFTLTISSLQSEDFAVYYCQQYNIWPRTFGQGTKVEIKR
notes: as for B4
For B11, the “100 nM Ag Bound (RU)” value [2] was 9 RU, the binding result [3] was “no binding (tested: 100 nM)” and the “100 nM Ag Bound (RU)” value [4] was 680 RU. The Kd [4] was 2.22 nM, the koff [4] was 0.000256 s⁻¹ and the kon [4] was 115000 M⁻¹ s⁻¹. The t½ [4] was 45.1 min.

B12: 69340 scFv (VK-VH) (scFv)
scFv: EIVLTQSPATLSLSPGERATLSCRASQSVSSYLAWYQQKPGQAPRLLIHDVSNRATGIPARFSGSGSGTDFTLTISSLEPEDFVVYYCQQRSDWPITFGQGTRLEIKGGGGSGGGGSGGGGSEVQLVESGGGLVQPGRSLRLSCAASGFTFDDKAMHWVRQVPGKGLEWISGISWNSGTIGYADSVKGRFIISRDNAKNSLYLQMNSLRAEDTALYYCAKDGDTSGWYWYGLDVWGQGTTVTVSS
notes: CHO supernatant; Vk-3xG4S-Vh
For B12, the “% Blocking” value [1] was 13%.

B13: 69332 scFv (VK-VH) (scFv)
scFv: AIQMTQSPSSLSASVGDRVTITCRASQGIRNDLGWYQQKPGKAPKLLIYAASTLQSGVPSRFSGSGSGTDFTLTISSLQPEDFATYYCLQDYNYPFTFGPGTKVDIKGGGGSGGGGSGGGGSQVTLRESGPALVKPSQTLTLTCTFSGFSLNTYGMFVSWIRQPPGKALEWLAHIHWDDDKYYSTSLKTRLTISKDTSKNQVVLTMTNMDPVDTATYYCARGHNNLNYIIHWGQGTLVTVSS
notes: CHO supernatant; Vk-3xG4S-Vh
With B13 the “% Blocking” value [1] was 22%.

B14: 69348 scFv (VK-VH) (scFv)
scFv: DIQMTQSPSSLSASVGDRVTITCRASQSIRNVLGWFQQKPGKAPQRLIYAASSLQSGVPSRFSGSGSGTEFTLTISSLQPEDFATYYCLQHNFYPLTFGGGTKVEIKGGGGSGGGGSGGGGSQVQLVESGGGVVQPGRSLRLSCAASGFTFTTYGMHWVRQAPGKGLEWVAVIWYDGSNKYYGDSVKGRFTISRDNSKNTLYLQMNSLRVDDTAVYYCTRTHGYTRSSDGFDYWGQGTLVTVSS
notes: CHO supernatant; Vk-3xG4S-Vh
With B14 the “% Blocking” value [1] was 16%.
